Laboratory results from publication doi:10.1101/2022.02.23.481653 (bioRxiv, 2022).

Target: the molecule itself
Assay: native gel or EMSA

Protein | stoichiometry N
SEPT2-msfGFP (wild type) (natural protein) MSKQQPTQFINPETPGYVGFANLPNQVHRKSVKKGFEFTLMVVGESGLGKSTLINSLFLTDLYPERVIPGAAEKIERTVQIEASTVEIEERGVKLRLTVVDTPGYGDAINCRDCFKTIISYIDEQFERYLHDESGLNRRHIIDNRVHCCFYFISPFGHGLKPLDVAFMKAIHNKVNIVPVIAKADTLTLKERERLKKRILDEIEEHNIKIYHLPDAESDEDEDFKEQTRLLKASIPFSVVGSNQLIEAKGKKVRGRLYPWGVVEVENPEHNDFLKLRTMLITHMQDLQEVTQDLHYENFRSERLKRGGRKVENEDMNKDQILLEKEAELRRMQEMIARMQAQMQMQMQGGDGDGGALGHHV | 2
SEPT2NCmut-msfGFP (SEPT2 F20D, V27D) (natural protein) MSKQQPTQFINPETPGYVGDANLPNQDHRKSVKKGFEFTLMVVGESGLGKSTLINSLFLTDLYPERVIPGAAEKIERTVQIEASTVEIEERGVKLRLTVVDTPGYGDAINCRDCFKTIISYIDEQFERYLHDESGLNRRHIIDNRVHCCFYFISPFGHGLKPLDVAFMKAIHNKVNIVPVIAKADTLTLKERERLKKRILDEIEEHNIKIYHLPDAESDEDEDFKEQTRLLKASIPFSVVGSNQLIEAKGKKVRGRLYPWGVVEVENPEHNDFLKLRTMLITHMQDLQEVTQDLHYENFRSERLKRGGRKVENEDMNKDQILLEKEAELRRMQEMIARMQAQMQMQMQGGDGDGGALGHHV | 2
